Consider two proteins from patent publication US6881575.

The target in series [1] is T1, Cdc25C peptide (amino acid 211 to 221 of Cdc25C; LYRSPSMPENL).
T1 chain: LYRSPSMPENL

Series [2] addresses T2, GST-Cdc25C (amino acid 200-256).
T2 sequence (P30307 whole entry, looked up): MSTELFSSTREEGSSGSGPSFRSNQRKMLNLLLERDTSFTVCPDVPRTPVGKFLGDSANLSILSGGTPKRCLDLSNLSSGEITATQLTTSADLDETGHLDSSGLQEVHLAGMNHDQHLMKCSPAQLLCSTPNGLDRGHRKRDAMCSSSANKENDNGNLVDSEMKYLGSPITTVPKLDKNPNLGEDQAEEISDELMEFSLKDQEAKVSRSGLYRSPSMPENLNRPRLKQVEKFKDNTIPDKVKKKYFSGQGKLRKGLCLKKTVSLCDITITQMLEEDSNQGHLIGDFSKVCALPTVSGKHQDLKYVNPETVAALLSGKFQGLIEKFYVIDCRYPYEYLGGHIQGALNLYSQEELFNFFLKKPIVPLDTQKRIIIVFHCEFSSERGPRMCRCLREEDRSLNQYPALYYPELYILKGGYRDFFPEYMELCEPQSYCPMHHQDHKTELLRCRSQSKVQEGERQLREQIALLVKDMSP

The next series deals with T3, TAT-S216A peptide.
T3 chain: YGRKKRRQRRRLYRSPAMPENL

Turning to LYRSPSMYENL [c-myc-tagged Chk2/HuCds1], in series [1], the “in vitro phosphorylation of the Cdc25C peptide by Chk2/HuCds1” value was “phosphorylation of Cdc25C peptide (residues 200-256) (SEQ ID NO:1) mediated by hChk1 (SEQ ID NO:3) and Chk2/HuCds1 (SEQ ID NO:4)”.
Take LYRSPSMFENL [HA-tagged hChk1]: in series [2], the “in vitro phosphorylation of GST-Cdc25C by immunoprecipitated hChk1 (32P-ATP, SDS-PAGE autoradiogram)” value is given as “hChk1 (SEQ ID NO:3) was capable of phosphorylating a Cdc25C protein (residues 20-256) (SEQ ID NO:1) fused to GST”. Moreover, the “phosphorylation of the peptide by hChk1” value with TAT-S216A peptide and with TAT-S216 peptide was “TAT-S216 but not TAT-S216A was efficiently phosphorylated by hChk1” in each case. Also, the “in vitro phosphorylation of the Cdc25C peptide by hChk1” value in series [1] is “phosphorylation of Cdc25C peptide (residues 200-256) (SEQ ID NO:1) mediated by hChk1 (SEQ ID NO:3) and Chk2/HuCds1 (SEQ ID NO:4)”.
